Measurements: doi:10.1101/303537 (bioRxiv, 2018)
Where no end group is shown, it is not given here.

B1: FITC-labeled histone H4 (16–41) peptide (peptide)
peptide: not shown
modifications: FITC label (position not given)

Key:
[1] = target: Retinoblastoma binding protein 7 (RBBP7) (human, UniProt Q16576 1-425); experiment: fluorescence polarisation
[2] = target: Retinoblastoma binding protein 4 (RBBP4) (human, UniProt Q09028 1-425); experiment: fluorescence polarisation
Chain of Retinoblastoma binding protein 4 (RBBP4) (Q09028 whole entry): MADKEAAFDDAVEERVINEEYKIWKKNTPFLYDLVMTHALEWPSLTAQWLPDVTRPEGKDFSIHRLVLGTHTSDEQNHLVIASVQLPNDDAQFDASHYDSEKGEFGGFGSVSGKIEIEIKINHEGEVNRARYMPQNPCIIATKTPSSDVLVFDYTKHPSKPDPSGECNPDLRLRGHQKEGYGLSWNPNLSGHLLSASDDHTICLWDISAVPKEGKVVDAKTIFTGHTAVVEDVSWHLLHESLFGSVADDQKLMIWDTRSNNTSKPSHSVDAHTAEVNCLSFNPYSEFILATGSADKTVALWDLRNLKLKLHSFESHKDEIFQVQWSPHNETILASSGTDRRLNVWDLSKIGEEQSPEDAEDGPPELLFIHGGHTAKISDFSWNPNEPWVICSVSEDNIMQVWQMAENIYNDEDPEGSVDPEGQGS

Chain of Retinoblastoma binding protein 7 (RBBP7) (Q16576 whole entry): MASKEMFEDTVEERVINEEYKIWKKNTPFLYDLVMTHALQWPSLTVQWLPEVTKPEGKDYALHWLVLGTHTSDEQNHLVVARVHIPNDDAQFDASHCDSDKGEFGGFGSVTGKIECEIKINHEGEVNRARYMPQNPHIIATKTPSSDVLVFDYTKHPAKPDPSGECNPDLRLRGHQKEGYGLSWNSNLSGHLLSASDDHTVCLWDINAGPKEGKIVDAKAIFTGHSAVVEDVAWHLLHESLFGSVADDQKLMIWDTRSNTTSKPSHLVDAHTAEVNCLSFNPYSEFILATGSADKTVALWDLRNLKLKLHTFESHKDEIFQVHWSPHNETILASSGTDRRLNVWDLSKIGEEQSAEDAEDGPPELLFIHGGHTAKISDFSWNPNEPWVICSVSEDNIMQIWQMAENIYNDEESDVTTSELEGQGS

Kd [1] | Kd [2] | Binder
135 ± 12 nM |  | B1
 | 6400 ± 600 nM | LIAPIFLHRTLTYMSHR (also: FITC label (position not given here)) [FITC-labeled SUZ12 (105–121) peptide]
 | 201 ± 102 nM | KSKKKSRKGRPRKTN (also: FITC label (position not given here)) [FITC-labeled PHF6 (157–171) peptide]
 | 488 ± 245 nM | MSRRKQSNPRQIKRS (also: FITC label (position not given here)) [FITC-labeled FOG-1 (1–15) peptide]
